We go through 1 protein from doi:10.1101/2024.03.07.583849 (bioRxiv, 2024).

Values joined by “and” are separate entries in the source; they are usually repeats but may differ in a detail not shown here. Equal values may be shown once.

The series concerns the molecule itself. Description: SEC.

B1: Chlamydomonas reinhardtii alpha-amylase 2 (AMA2), recombinant full-length enzyme (enzyme, UniProt A0A2K3DGK5 1-706, looked up)
chain: MDRSLLSRTSPRMQLGRPQQLPPPTVPLAQVPRLQRRCVVGSRVCQPVVAVRPGRASAGRGGRLVVSSVDMSNSPLSSMDAGEGLDIMFDNNSDAECTVVTVEGKDKAHLLMSLTGGFSSAGLTVISASITSDDGRVLDVFRVQTADGKKVPEEQFPSVREHILSVTATSSRSSMPAIYGIVAAAEVERLKPLRSQSTQNDVDALELAAAEMTQAVAELVATERDIIRMRASNADARTLQTKEANRTEAAAGLERKMAAMQAVLAARRNLATEPEKPKSPTEKLLETLKPPTPMRAAAGAGSGSGSEILLQAFNWESHRQKLYKQLMGRVKDISDAGFTGVWMPPPSDSVSPQGYLPRDLYSLDSAYGSEAELRELIAAFHQNNIKVIADIVVNHRCANSQGSDGKWNKFGGRLAWDASAICSNNPSFGGRGNPKQGDDYAAAPNIDHSQERIRNDIVQWMKYLRNSIGFDGWRFDFVRGYLGSYCKQYIDETVPAMAFGEYWDSCEYTDGVLNYNQDAHRQRTVNWCDSTGGTSAAFDFTTKGILQEAVGRREYWRLVDSQGRPPGVMGMWPSRAITFIDNHDTGSTLNHWPFPSRNLPEGYAYILTHPGTPCVFYDHFYQEENNLRKIILDLLKVRRRNGLNARSKVVMKKSAADVYAAMIDDKVAVKLGPGDWSPNQSGIKVNGKELKVAASGFQFAVWEGQH
Regarding B1, the stoichiometry N (as a rule, a count of units in the complex or per binding partner) was 2 and 4.
